The subject of data set [1] is Nc1nc2c(ncn2[C@@H]2O[C@H](COP(=O)(O)OP(=O)(O)OP(=O)(O)O)[C@@H](O)[C@H]2O)c(=O)[nH]1. Nature of the data set: purified protein. The following applies: Mg2+, Ca2+ phosphate donor; STO-609 competes with GTP; 30.0 °C.
The subject of data set [2] is Nc1ncnc2c1ncn2[C@@H]1O[C@H](COP(=O)(O)OP(=O)(O)OP(=O)(O)O)[C@@H](O)[C@H]1O. Nature of the data set: purified protein. The note with it: Mg2+, Ca2+ phosphate donor; 30.0 °C.
Data set [3] has as its target T1, CaMKKα (Rattus norvegicus, UniProt P97756).
T1 construct: gene Camkk1; recombinant CaMKKα purified from E. coli; with calmodulin (Ca2+/CaM)
Nature of the data set: […]-GTP kinase assay with GST-CaMKIα ([…]-293, K49E); Lineweaver-Burk. Format: biochemical.

Data set [4] concerns the target T2, CaMKKβ (Rattus norvegicus, UniProt O88831).
T2 construct: gene Camkk2; recombinant CaMKKβ purified from E. coli; with calmodulin (Ca2+/CaM)
The data set is described as above. It is filed as biochemical.

T1 sequence (P97756 whole entry): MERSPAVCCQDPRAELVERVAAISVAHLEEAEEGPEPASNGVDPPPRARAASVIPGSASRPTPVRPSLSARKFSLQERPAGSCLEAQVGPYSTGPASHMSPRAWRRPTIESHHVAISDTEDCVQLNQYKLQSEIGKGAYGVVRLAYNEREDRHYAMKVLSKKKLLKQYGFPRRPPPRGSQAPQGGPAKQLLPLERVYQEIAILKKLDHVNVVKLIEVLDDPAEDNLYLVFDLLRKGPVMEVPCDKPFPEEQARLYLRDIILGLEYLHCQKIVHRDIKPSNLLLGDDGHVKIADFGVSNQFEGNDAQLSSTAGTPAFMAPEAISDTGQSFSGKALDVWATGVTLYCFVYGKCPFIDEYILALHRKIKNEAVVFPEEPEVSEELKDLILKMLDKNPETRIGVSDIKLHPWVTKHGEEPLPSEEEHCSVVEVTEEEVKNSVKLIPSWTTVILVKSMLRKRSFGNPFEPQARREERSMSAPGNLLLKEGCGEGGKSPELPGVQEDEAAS
T2 sequence (O88831 2-587): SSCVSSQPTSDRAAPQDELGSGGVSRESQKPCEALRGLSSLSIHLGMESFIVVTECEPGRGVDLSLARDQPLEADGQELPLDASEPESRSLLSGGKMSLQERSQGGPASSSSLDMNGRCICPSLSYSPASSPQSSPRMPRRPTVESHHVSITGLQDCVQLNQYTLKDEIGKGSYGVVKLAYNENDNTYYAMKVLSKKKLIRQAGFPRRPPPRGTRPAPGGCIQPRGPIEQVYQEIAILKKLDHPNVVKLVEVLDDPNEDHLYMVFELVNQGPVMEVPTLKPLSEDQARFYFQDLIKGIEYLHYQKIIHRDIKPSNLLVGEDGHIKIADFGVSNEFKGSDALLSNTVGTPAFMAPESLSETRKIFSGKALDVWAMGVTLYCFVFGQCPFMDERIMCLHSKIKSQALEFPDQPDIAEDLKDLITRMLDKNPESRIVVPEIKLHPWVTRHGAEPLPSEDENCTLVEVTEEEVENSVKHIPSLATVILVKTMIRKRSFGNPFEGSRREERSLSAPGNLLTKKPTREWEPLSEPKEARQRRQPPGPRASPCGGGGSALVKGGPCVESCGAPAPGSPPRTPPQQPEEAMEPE

One may read the Km as the substrate concentration at which the rate is half of its maximum. The term Vmax denotes the top rate of the reaction or transport when substrate is in excess. Turning to CaMKKβ (Rattus norvegicus), the figures for the Km in data set [1] and in data set [2] were 507 µM and 15 µM, respectively. In addition, the Vmax in data set [1] came out at 0.077 µmol/min/mg; in data set [2], 0.286 µmol/min/mg.

Regarding CaMKKα (Rattus norvegicus), in data set [1], the Km came out at 444 µM and the Vmax came out at 0.312 µmol/min/mg. Moreover, in data set [2], the Km was found to be 15 µM and the Vmax was found to be 0.625 µmol/min/mg.

The IC50 is the concentration that inhibits the measured activity by half. For the compound `O=C(O)c1ccc2c3c1cccc3c(=O)n1c3ccccc3nc21` [STO-609, 7H-benzimidazo[2,1-a]benz[de]isoquinoline-7-one-3-carboxylic acid], the IC50 in data set [3] is 255 nM; in data set [4] it was 38.2 nM.

The values above are taken from publication PMC3537517, “In vitro substrate phosphorylation by Ca^2+/calmodulin-dependent protein kinase kinase using guanosine-5^′-triphosphate as a phosphate donor” (BMC Biochemistry, 2012).
